This note sets out measurements from patent publication US20210063414A1, “METHODS FOR PREVENTING AND/OR TREATING BONE LOSS CONDITIONS BY MODULATING IRISIN” (Dana-Farber Cancer Institute, Inc., priority 2018, published 2021).

The target in the experiment is T1, MLO-Y4 cell surface proteins (Mus musculus, UniProt Q921G7).
T1 construct: endogenous in cells; host or cells: MLO-Y4
T1 sequence (Q921G7 33-616): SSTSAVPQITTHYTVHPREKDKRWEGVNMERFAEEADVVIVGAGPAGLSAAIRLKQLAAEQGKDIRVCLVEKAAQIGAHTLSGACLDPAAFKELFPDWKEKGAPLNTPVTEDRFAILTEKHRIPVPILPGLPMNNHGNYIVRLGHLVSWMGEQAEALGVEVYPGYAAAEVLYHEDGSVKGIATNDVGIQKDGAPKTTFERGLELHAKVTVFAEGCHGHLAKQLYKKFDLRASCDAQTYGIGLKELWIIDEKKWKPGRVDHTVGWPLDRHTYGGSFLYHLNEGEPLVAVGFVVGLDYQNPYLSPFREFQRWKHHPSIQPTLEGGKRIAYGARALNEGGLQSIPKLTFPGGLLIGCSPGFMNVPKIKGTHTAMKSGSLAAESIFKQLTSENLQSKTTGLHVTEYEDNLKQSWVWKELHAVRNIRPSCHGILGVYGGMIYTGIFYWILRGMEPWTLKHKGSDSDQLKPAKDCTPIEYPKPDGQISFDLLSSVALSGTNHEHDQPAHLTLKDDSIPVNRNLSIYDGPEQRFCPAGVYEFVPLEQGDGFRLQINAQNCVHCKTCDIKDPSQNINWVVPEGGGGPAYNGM
Description: Crosslinking/co-immunoprecipitation/mass spectrometry (TMT quantitative proteomics) to identify irisin receptors. It counts as binding. The note with it: co-precipitated protein Etfdh (ETFD_MOUSE). The essentials:
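Mouse MLO-Y4 cells were switched to serum-free FreeStyle medium for 4 h, chilled, then exposed to 10 nM His-tagged irisin (or adipsin as control) for 20 min. Cells were crosslinked with 1.5 mM DTSSP (30 min, ice), and bound proteins were pulled down on Ni-NTA and eluted with 250 mM imidazole. Eluates were separated by SDS-PAGE, trypsin-digested in gel, TMT 6-plex labelled and quantified by MS3-based LC-MS/MS on an Orbitrap Fusion Lumos.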

B1: irisin: secreted cleaved form of FNDC5; recombinant human/mouse irisin with C-terminal his tag produced in HEK293 cells (protein)
chain: DSPSAPVNVTVRHLKANSAVVSWDVLEDEVVIGFAISQQKKDVRMLRFIQEVNTTTRSCALWDLEEDTEYIVHVQAISIQGQSPASEPVLFKTPREAEKMASKNKDEVTMKE
modifications: left off: small tags and cut ends
notes: secreted cleaved form of FNDC5; recombinant human/mouse irisin with C-terminal his tag produced in HEK293 cells
As for B1, the TMT signal-to-noise ratio was determined as 30.6918 and the “irisin/adipsin TMT signal-to-noise ratio” value was 0.532.
